Reference: article PMC12481158

Target: CHLOROPLAST UNUSUAL POSITIONING 1 with C-terminal GFP (CHUP1:GFP) (N. benthamiana)
Assay: FRET or BRET; nonfitting FLIM-FRET (average-arrival-time FRET) in planta; CHUP1:GFP donor, KAC1:RFP acceptor; mean weighted photon arrival time on chloroplasts juxtaposed to the PM

KINESIN-LIKE PROTEIN FOR ACTIN-BASED CHLOROPLAST MOVEMENT 1 with C-terminal RFP (KAC1:RFP) (natural protein)
decrease in donor lifetime against CHUP1:GFP alone: 143 ps
donor (CHUP1:GFP) fluorescence lifetime with KAC1:RFP: 2.27 ns
